Experiment [1] deals with T1, Human TGFβ1 protein (human, UniProt P01137 279-390).
T1 construct: also called TGFβ1 protein (Sino, 10804-HNAC); Novoprotein Inc., Cat #CA59
The experiment is described as follows: ELISA, human TGFβ1 coated at 10 ng/well, detection with HRP goat anti-human Fc, OD450-620 [left panel]. On the procedure:
(§1) The plates were then blocked by incubation with 1% BSA in PBS for one hour at 37° C. After blocking, the plates were washed three times with PBST (PBS containing 0.05% Tween 20). […] After binding, the plates were washed three times with PBST, incubated for one hour at 37° C. with peroxidase-labeled Goat anti-human Fc antibody (Jackson Immuno Research, Cat #109-035-098) diluted 1/20,000 in binding buffer, washed again, developed with TMB (ThermoFisher Cat #34028) for 15 minutes, and then stopped with 1M H₂SO₄. The absorbance at 450 nm-620 nm was determined.
For orientation: An ELISA detects its analyte on a solid surface through an enzyme-linked reagent.

The target of experiment [2] is T2, Human PD-1 protein (ACRObiosystems, Cat #PD1-H5221) (human, UniProt Q15116 25-167).
T2 construct: Bought soluble protein
Kind of experiment: ELISA, human PD-1 coated at 25 ng/well, detection with HRP goat anti-human F(ab')2, OD450-620 [right panel]. The protocol:
(§2) An ELISA assay was performed for determination of the relative binding capacity of the fusion proteins to human PD-1.
as §1, with “Human PD-1 protein (ACRObiosystems, Cat #PD1-H5221) was immobilized onto 96-well plates in PBS (Hyclone, Cat #SH30256.01) by incubation overnight at 4° C., 25 ng/well. The” for “The”, “F(ab′)²” for “Fc”, “#109-035-097)” for “#109-035-098)”, “(ThermoFisher,” for “(ThermoFisher”, “Each plate well contained 50 μL of solution” for “The absorbance”, “each step.” for “450 nm-620 nm was determined.”

Experiment [3] has as its target T2, Human PD-1 protein (ACRObiosystems, Cat …). Kind of experiment: ELISA, human PD-1 coated at 25 ng/well, detection with HRP goat anti-human F(ab')2, OD450-620 [left panel]. On the procedure:
as §2
as §1, with “Human PD-1 protein (ACRObiosystems, Cat #PD1-H5221) was immobilized onto 96-well plates in PBS (Hyclone, Cat #SH30256.01) by incubation overnight at 4° C., 25 ng/well. The” for “The”, “F(ab′)²” for “Fc”, “#109-035-097)” for “#109-035-098)”, “(ThermoFisher,” for “(ThermoFisher”, “Each plate well contained 50 μL of solution” for “The absorbance”, “each step.” for “450 nm-620 nm was determined.”

T2 sequence (Q15116 25-167 limits assumed): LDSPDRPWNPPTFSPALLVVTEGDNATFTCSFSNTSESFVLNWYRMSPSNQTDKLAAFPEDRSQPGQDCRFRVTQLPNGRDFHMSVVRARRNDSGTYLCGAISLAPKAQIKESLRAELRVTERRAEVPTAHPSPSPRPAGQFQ
T1 sequence (P01137 279-390 limits assumed): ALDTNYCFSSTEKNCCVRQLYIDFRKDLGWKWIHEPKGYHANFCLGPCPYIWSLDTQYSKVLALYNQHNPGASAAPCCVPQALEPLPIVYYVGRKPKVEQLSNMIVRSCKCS

B1: human TGFβR2-hFc (ACRObiosystems, Cat #TG2-H5252) (Fc fusion, UniProt P37173 23-159, looked up)
chain: TIPPHVQKSVNNDMIVTDNNGAVKFPQLCKFCDVRFSTCDNQKSCMSNCSITSICEKPQEVCVAVWRKNDENITLETVCHDPKLPYHDFILEDAASPKCIMKEKKKPGETFFMCSCSSDECNDNIIFSEEYNTSNPD
notes: Bought Fc fusion; also called positive control; not shown: human Fc of the bought fusion
By EC50 is commonly meant the concentration at which the effect is half-maximal. B1 displayed an EC50 in experiment [1] of 0.0652 nM.

B2: anti-PD-1 antibody 21F12-1F6 (antibody, human IgG1, kappa, L234A L235A, V domains shown)
VH: QMQLVQSGAEVKKPGASVKLSCKASGYIFQSYYIHWVRQAPGQGLEWVGVINPSGGSTTYAQKFQGRVTMTRDTSISTAYMELSRLRSDDTVVYYCARGSYSSGWDYYYYYGMDVWGKGTLVTVSS
VL: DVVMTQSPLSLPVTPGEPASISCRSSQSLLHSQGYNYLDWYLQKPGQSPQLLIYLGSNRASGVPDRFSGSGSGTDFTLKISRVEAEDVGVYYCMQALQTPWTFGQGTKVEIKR
notes: Positive control in the PD-1 ELISA; also called anti-human PD-1; antibody 21F12-1F6 in PCT/CN2019/087287
Take B2: the EC50 in experiment [2] turned out to be 0.0995 nM; in experiment [3], 0.0957 nM.

Source of the values: patent US20210115142A1 (NANJING LEADS BIOLABS, published 2021).
